{
  "source": "paper PMC6805484",
  "about": "“The RNA-binding ubiquitin ligase MKRN1 functions in ribosome-associated quality control of poly(A) translation”",
  "molecular_target": "His-MKRN1 wt;His-PABPC1 (human (Homo sapiens);human (Homo …, UniProt Q9UHC7;P11940 1-482;1-636, |))",
  "sequence (Q9UHC7 whole entry, chain 1 of 2)": "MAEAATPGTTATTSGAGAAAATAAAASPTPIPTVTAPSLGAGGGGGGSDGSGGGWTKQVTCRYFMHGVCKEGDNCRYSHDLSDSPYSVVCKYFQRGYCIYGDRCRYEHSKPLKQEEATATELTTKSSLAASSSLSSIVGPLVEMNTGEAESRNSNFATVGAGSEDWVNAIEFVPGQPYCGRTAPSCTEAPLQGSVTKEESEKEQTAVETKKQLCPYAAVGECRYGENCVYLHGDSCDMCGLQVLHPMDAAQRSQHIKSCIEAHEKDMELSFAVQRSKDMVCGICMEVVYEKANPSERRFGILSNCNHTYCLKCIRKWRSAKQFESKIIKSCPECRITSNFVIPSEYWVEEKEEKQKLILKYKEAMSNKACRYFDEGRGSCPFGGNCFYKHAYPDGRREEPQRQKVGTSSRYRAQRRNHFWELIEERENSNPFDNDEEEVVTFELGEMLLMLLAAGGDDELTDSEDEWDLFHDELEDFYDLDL",
  "sequence (P11940 whole entry, chain 2 of 2)": "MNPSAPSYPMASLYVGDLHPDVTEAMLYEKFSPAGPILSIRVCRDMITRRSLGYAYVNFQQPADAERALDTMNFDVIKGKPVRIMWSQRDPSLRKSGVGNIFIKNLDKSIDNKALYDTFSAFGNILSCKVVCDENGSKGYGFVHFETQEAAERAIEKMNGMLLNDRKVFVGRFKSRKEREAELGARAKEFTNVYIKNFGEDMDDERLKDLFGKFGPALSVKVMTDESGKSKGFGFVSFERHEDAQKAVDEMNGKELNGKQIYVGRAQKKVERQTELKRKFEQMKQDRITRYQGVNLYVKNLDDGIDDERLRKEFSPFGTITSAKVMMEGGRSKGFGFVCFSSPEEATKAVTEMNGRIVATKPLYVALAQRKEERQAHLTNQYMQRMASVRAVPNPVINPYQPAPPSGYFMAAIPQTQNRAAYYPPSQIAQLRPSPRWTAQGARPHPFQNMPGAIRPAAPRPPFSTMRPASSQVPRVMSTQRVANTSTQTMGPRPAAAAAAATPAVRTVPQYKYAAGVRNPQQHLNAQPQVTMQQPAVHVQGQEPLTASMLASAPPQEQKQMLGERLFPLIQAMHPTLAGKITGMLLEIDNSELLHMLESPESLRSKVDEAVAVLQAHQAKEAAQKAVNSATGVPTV",
  "experiment": "pull-down; PABPC1 strongly increases MKRN1 recovery; Binding: 50 mM Tris-HCl pH 7.4, 500 mM KCl, 12.5 mM MgCl2, 1% Triton X-100, 1 h, 4 °C; wash: 200 mM NaCl, 10 mM MgCl2, 50 mM HEPES pH 7.4, 0.5% Igepal CA630, 1% Triton X-100",
  "settings": "protein: recombinant;recombinant; tags: N-His6;N-His6; copies: 1;1; label: 3' biotin",
  "data": [
    {"binder": "GGAAAUAAACUGUAGAGUUCCAAAAAAAAAAAAAAAAAAAAA (ssRNA)", "note": "[A20 RNA (SRSF4 3' UTR end + A20)]", "values": [
      {"measurement": "binding result", "value": "binds"}
    ]}
  ]
}
